# Experimental data taken from IntAct's records for PubMed 18068675.
# B1: Neurovirulence factor ICP34.5 (Human herpesvirus 1 (strain 17) (HHV-1)), P36313 (parent)
# chain: MARRRRHRGPRRPRPPGPTGAVPTAQSQVTSTPNSEPAVRSAPAAAPPPPPAGGPPPSCSLLLRQWLHVPESASDDDDDDDWPDSPPPEPAPEARPTAAAPRPRPPPPGVGPGGGADPSHPPSRPFRLPPRLALRLRVTAEHLARLRLRRAGGEGAPEPPATPATPATPATPATPARVRFSPHVRVRHLVVWASAARLARRGSWARERADRARFRRRVAEAEAVIGPCLGPEARARALARGAGPANSV
# Variants of: B1
# Conditions: with pp1a_human PPP1CA
row,Variant,effect of a mutation on the interaction
1,V178E;F180L,decreasing interaction

# Variants of: B1
# Conditions: with pp1a_human PPP1CA
# Remark: another data set of the same source
row,Variant,effect of a mutation on the interaction
1,V178E;F180L,disrupting interaction

# Variants of: B1
# Conditions: with pp1a_human PPP1CA
# Remark: another data set of the same source
row,Variant,effect of a mutation on the interaction
1,R236D,decreasing interaction

# Variants of: B1
# Conditions: with pp1a_human PPP1CA
# Remark: another data set of the same source
row,Variant,effect of a mutation on the interaction
1,R234E,decreasing interaction
